Data reported in patent publication US20220098319A1 (SHANGHAI PHARMAEXPLORER, published 2022).
Substitutions are numbered along the chain they refer to.

T1: human CD73 (full length, on transfected CHOK1 cells) (human, UniProt P21589 27-549)
T1 construct: whole, on cells; also called CHOK1-hCD73; hCD73
T1 sequence (looked up): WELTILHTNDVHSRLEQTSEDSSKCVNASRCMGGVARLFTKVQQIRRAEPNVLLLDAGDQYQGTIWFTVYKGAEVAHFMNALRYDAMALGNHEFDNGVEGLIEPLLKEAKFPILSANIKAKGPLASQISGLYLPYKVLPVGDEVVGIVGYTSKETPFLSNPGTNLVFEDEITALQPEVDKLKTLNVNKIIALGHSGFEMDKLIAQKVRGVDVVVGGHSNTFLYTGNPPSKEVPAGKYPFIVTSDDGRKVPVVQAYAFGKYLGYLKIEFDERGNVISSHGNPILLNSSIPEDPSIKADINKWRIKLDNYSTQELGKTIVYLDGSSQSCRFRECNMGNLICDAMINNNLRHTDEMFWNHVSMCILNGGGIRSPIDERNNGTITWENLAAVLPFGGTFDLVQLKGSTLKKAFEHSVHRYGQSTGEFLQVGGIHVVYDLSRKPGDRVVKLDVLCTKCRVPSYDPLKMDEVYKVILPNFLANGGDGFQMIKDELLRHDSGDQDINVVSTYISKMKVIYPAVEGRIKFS

T2: cynomolgus monkey CD73 (on transfected CHOK1 cells) (cynomolgus monkey, UniProt A0A2K5V5U7 27-549)
T2 construct: whole, on cells; also called CHOK1-cCD73; CHOK1-CCD73
T2 sequence: T1 sequence (looked up) with M199T, T350A, V466I

T3: murine CD73 (on transfected CHOK1 cells) (mouse, UniProt Q61503 29-551)
T3 construct: whole, on cells; also called CHOK1-mCD73; mCD73
T3 sequence (looked up): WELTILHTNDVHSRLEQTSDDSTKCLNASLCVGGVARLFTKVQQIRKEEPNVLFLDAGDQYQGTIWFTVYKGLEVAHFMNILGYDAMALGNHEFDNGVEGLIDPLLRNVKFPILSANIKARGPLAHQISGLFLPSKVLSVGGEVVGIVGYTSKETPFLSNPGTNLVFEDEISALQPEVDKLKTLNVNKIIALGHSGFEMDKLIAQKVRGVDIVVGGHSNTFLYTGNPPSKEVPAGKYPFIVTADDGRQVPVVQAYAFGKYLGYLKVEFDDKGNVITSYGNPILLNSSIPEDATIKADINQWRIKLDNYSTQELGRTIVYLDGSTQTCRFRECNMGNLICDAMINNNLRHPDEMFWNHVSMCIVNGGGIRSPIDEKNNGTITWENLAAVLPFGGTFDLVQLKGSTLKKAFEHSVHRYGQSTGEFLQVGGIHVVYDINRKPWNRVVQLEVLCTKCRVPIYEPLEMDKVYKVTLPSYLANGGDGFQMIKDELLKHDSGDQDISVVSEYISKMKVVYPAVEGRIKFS

B1: mAb020 (clone 24D6B4), murine anti-CD73 antibody (antibody, V domains shown)
VH: EVQLQQSGPELVKPGASVKIPCKASGYTFTDYNMDWVKQRHGKSLEWIGDINPNNGGTVYNQKFKGKATLTVDKSSNTAYMELRSLTSEDTAVYYCARISGTGYWYFDVWGTGTTVTVSS
VL: DIQMTQSPASLSVSVGETVTITCRASENIYSNLAWYQQKQGKSPQLLVYGATNLADGVPSRFSGSDSGTQYSLKINSLQSEDFGSYYCQHFWGTPWTFGGGTKLEIK
notes: Purified from hybridoma supernatant
B2: mAb034 (clone 60G1C8), murine anti-CD73 antibody (antibody, V domains shown)
VH: DVQLQESGPGLVKPSQSLSLTCSVTGYSITSRYYWNWIRQFPGNKLEWMGYMTYDGTNNYNPSLTNRISITRDTSKNQFFLKLNSVTAEDTATYFCARGGWDPFDYWGQGTTLTVSS
VL: DIQMTQSPAALSASVGETVTITCRASDNIYSYLAWYQQKQGKCPQLLVKNAKTLAEGVPSRFSGSGSGTQFSLRINSLQPDDFGTYYCQHYYGTPLTFGAGTKLELK
notes: as for B1
B3: mAb036 (clone 66H6C12), murine anti-CD73 antibody (antibody, V domains shown)
VH: QVQLQQSGAEVVKPGASVKISCKASGYVFSSYWINWVKQRPGKGLEWIGKIFPGNGDTDYNGNFKGKATLTADKSSSTAYMQLSSLTSEDSAVYFCAGFADWGQGTLVTVSA
VL: DIQMTQSPSSLSASLGERVSLTCRASQDIGERLIWLQQEPDGTFKRLIYATSSLDSGVPKRFSGSSSGSDYSLTISRLESEDFVDYYCLQYASSPYTFGGGTKLEIK
notes: as for B1
B4: mAb038 (clone 69C9E12), murine anti-CD73 antibody (antibody, V domains shown)
VH: QVQLQQPGTELVNPGASVKLSCKASGYTFTSYWMHWVKQRPGQGLEWIGNINPSNGGTHYNEKFNNKATLTVDKSSSTAYMQLSSLTSEDSAVFYCARGDYAYDWYFTVWGTGTTVTVSS
VL: DIVLTQSPASLAVSLGQRAIISCKASQSVSFAGTGLMHWYQQKPGQQPKLLIYRVSNLEAGIPTRFSGSGSRTDFTLNIHPVEEDDAATYYCQQNREFPWTFGGGTKLEIK
notes: as for B1
B5: mAb041 (clone 71E10B3), murine anti-CD73 antibody (antibody, V domains shown)
VH: QVQLQQPGTELVKPGASVKLSCKASGYTFTSYWMHWVKQRPGQGLEWIGNINPSNGGTNYNQKFKSKATLTVDKSSNTASMQLSSLTSEDSAVYYCARGDYGYDWYLDVWGTGTTVTVSS
VL: B4 VL with T34P, G35S, V55T, I62V, R72G
notes: as for B1
B6: mAb042 (clone 77B9A3), murine anti-CD73 antibody (antibody, V domains shown)
VH: QVQLQQSGAGLVKPGASVKLSCKASGYTFTNYWMHWVKQRPGQGLEWIGMIHPNSGSTNNNEKFKNKATLTVDKSSNTAYMQLSSLTSEDSAVYYCARFFFGGYPHYYALDYWGQGTSVTVSS
VL: DIVMTQSQKFMSTTVGDRVSITCKASQNVGTAVAWYQQKPGQSPKLLIYSASDRYTGVPDRLTGSGSGTDFTLTISNVQSEDLADYFCQQYSSFPLFTFGSGTKLVIQ
notes: as for B1
B7: mAb044 (clone 80H7D6), murine anti-CD73 antibody (antibody, V domains shown)
VH: EVKLVESGGGLVQPGGSLRLSCAASGFTFTDYYMSWVRQPPGKALEWLGFIRNKADGSTTEYSASVKGRFTISRDNSQSILYLQMNALRPEDSATYYCTRSPIYFDNWYFDVWGTGTTVTVSS
VL: DIVMSQSPSSLAVSVGEKVTMTCKSSQSLLYSNNQKNYLAWYQQKPGQSPKLLIYWASTRESGVPDRFTGSGSGTDFTLTLSSVKAEDLAVYYCQQYYSYPFTFGSGTKLEIK
notes: as for B1
B8: mAb065 (clone 125A4E10), murine anti-CD73 antibody (antibody, V domains shown)
VH: EVQLQQSGPELVKPGASVKISCKASGYTFTDYYMNWVKQSHGKSLEWIGNINPNNGDTNYNQKFKGKATLTVDKSSSTASMELRSLTSEDSAVYYCANSGYYYFDYWGQGTTLTVSS
VL: DIVMTQSPSSLTVTAGEKVTMSCKSSQSLLNSGNQKNYLTWYQQKPGQPPKVLIYWASTRESGVPDRFTGSGSGTDFTLTISSVQAEDLAVYYCQNDYSYPPTFGGGTNLEIK
notes: as for B1
B9: mAb030 (clone 42A5A7), murine anti-CD73 antibody (antibody, V domains shown)
VH: DIQLQESGPGLVKPSQSLSLTCSVTGYSITSRYYWNWIRQFPGNKLEWMGYITYDDNNNYNPSLKNRISITRDTSKNQFFLKLNSVTPEDTATYYCARGGWDPFLYWGQGTLVTVSA
VL: DIQMTQSPASLSASVGETVTITCRASDNIYSYLAWYQQKQGKSLQLLVDSAKNLGEGVPSRFSGSGSGTQFYLKINSLQPEDFGVYYCQHYYGTPFTFGGGTKLELK
notes: Purified from hybridoma supernatant; also called antibody 030

Experiments:
[1] = target: T1, human CD73 (full length, on transfected …); experiment: FACS on CHOK1-hCD73 cells
Description: The titration binding curve was produced by the following method:
The CHOK1 stable cell line transfected with human CD73 was expanded to a 75-90% confluence in a T-75 cell culture flask. The medium was aspirated, washed 1-2 times with PBS, and then treated with trypsin (Tryple express: Life technology) and cells were collected. The cells were washed with PBS buffer for 1-2 times. After counted, the cells were diluted with PBS to 1-2×10⁶ cells per ml, added with 1% fetal bovine serum (FBS) blocking solution, incubated on ice for 20-30 minutes, and then washed twice with HBSS by centrifugation. The collected cells were suspended with FACS buffer (PBS+2% FBS) to 2×10⁶ cells/ml, added to a 96-well FACS reaction plate at 100 microliters per well, and centrifuged at 300 g for 5 minutes to discard the supernatant. Anti-CD73 antibody was prepared with blocking solution to an initial concentration of 10 ug/ml and serially diluted at 8 points. 100 microliter per well of that antibody sample to be tested were added and incubated at 4° C. for 1-2 hours. […] The plate was washed 2-3 times with FACS buffer by centrifugation, added with 100 μl fixative solution (4% Paraformaldehyde) per well to suspend the cells. 5-10 minutes later, it was washed 1-2 times with FACS buffer by centrifugation. The cells were suspended with 100 microliters of FACS buffer, FACS (FACSCalibur, BD) was used for detection and the results were analyzed, as shown in FIG. 1 and Table 4.

[2] = target: T1, human CD73 (full length, on transfected …); experiment: cell-based or functional assay
[3] = target: T2, cynomolgus monkey CD73 (on transfected …); experiment: FACS on CHOK1-cCD73 cells
[4] = target: T3, murine CD73 (on transfected CHOK1 cells); experiment: FACS on CHOK1-mCD73 cells

Binder | EC50 [1] | MAX MFI [1] | Enzyme activity blocking assay, IC50 [2] | Enzyme activity blocking assay, MAX % inhibition [2] | EC50 [3] | MAX MFI [3] | binding result [4]
B1 | 1.8 nM | 7540 MFI | 0.1 nM | 63% | 3.4 nM | 9960 MFI | no binding (tested: 10 ug/ml initial concentration)
B2 | > 10 nM | 5820 MFI | 0.1 nM | 73.7% | 0.2 nM | 3210 MFI | no binding (tested: 10 ug/ml initial concentration)
B3 | 0.3 nM | 5290 MFI | 0.2 nM | 72.3% | 0.9 nM | 7490 MFI | no binding (tested: 10 ug/ml initial concentration)
B4 | 0.4 nM | 5230 MFI | 1 nM | 53.3% | 0.3 nM | 7400 MFI | no binding (tested: 10 ug/ml initial concentration)
B5 | 2.9 nM | 8160 MFI | 4 nM | 35.7% | 1.9 nM | 9570 MFI | no binding (tested: 10 ug/ml initial concentration)
B6 | > 10 nM | 13900 MFI | 0.1 nM | 47.9% | 3.9 nM | 8770 MFI | no binding (tested: 10 ug/ml initial concentration)
B7 | 1.6 nM | 7540 MFI | 0.5 nM | 53.5% | 3.4 nM | 12300 MFI | no binding (tested: 10 ug/ml initial concentration)
B8 | 1.1 nM | 4650 MFI | 0.3 nM | 56.4% | 2.5 nM | 3250 MFI | no binding (tested: 10 ug/ml initial concentration)
B9 | 0.9 nM | 6440 MFI | 0.1 nM | 74.6% | 0.4 nM | 6310 MFI | no binding (tested: 10 ug/ml initial concentration)
